Measured values from patent publication US20140087995A1 (published 2014).
Numbered stars: 1 amine (or outer) side, 2 acyl side, 3 side chain; on linkers, the order of the positions; unused ones are H or OH. Bridge positions count the residues as written; N and C are the ends. Side chains are listed from the residue outwards. Ends that are not written are not given here. * marks the point of attachment. C20 diacid = O=C(O)CCCCCCCCCCCCCCCCCCC(=O)*; γGlu = O=C(O)[C@H](CCC(=O)[*:2])N[*:1]; AEEA = NCCOCCOCC(=O)O

What was measured:
[1] = target: T1, human calcitonin receptor (human, UniProt P30988 25-474); assay: ratio of IC50 at human calcitonin receptor to IC50 at human amylin receptor (SPA competition assays)
T1 construct: whole, on cells; also called hCTR; hCT
T1 sequence (looked up): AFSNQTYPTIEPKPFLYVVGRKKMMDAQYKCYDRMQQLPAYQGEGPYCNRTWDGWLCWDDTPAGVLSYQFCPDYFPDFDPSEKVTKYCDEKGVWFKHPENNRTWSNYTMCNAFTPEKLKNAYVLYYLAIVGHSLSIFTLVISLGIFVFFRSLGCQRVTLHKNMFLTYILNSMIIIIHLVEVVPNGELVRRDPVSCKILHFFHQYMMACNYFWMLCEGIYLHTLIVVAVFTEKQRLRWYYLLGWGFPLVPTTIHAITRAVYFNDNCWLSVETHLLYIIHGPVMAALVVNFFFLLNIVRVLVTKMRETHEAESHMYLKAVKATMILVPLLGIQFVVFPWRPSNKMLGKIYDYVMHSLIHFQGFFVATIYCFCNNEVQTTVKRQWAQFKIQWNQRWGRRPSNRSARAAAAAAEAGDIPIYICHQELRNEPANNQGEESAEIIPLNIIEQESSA
Description: The resulting pellet was resuspended, homogenized and centrifuged (20.000 rpm, 15 min) in a buffer containing 20 mM Na-HEPES and 0.1 mM EDTA (pH 7.4, buffer 2). The resulting pellet was resuspended in buffer 2 and protein concentration was measured (BCA protein Assay, Pierce). The homogenate was kept cold during the whole procedure. The membranes were kept at −80° C. until use. The assay was performed in a 384 well Optiplate (PerkinElmer) in a total volume of 40 ul. Membranes were mixed with SPA beads. Final concentration of membranes 35 ng/μL final and SPA beads was 0.05 mg/well. Test-compounds were dissolved in DMSO and further diluted in assay buffer (50 mM Hepes, pH 7.4, 1 mM CaCl2, 5 mM MgCl₂, 0.1% OA and 0.02% Tween20). […] The final mixture was incubated with shaking at 400 rpm for 120 min at 25° C. prior to centrifugation (1500 rpm, 10 min). Samples were analyzed on TopCounter™ (Packard). The IC₅₀ was calculated using (one site binding competition analysis) GraphPad Prism5 as a measure of receptor affinity.
Membranes were prepared in the following way; the cells were rinsed with PBS and incubated with Versene for approximately 5 min before harvesting. The cells were flushed with PBS and the cell-suspension was centrifuged for 5 min at 1000 rpm. Cells were homogenized (Ultrathurrax) in a buffer containing 20 mM Na-HEPES and 10 mM EDTA (pH 7.4) and centrifuged at 20.000 rpm for 15 min. The resulting pellet was resuspended, homogenized and centrifuged (20.000 rpm, 15 min) in a buffer containing 20 mM Na-HEPES and 0.1 mM EDTA (pH 7.4, buffer 2). The resulting pellet was resuspended in buffer 2 and protein concentration was measured (BCA protein Assay, Pierce). The homogenate was kept cold during the whole procedure. The membranes were kept at −80° C. until use. Assay was performed in a 384 well Optiplate (PerkinElmer) in a total volume of 40 ul. Membranes were mixed with SPA beads.

[2] = target: T1, human calcitonin receptor; assay: SPA radioligand competition (125I-calcitonin), membranes of BHK cells with human calcitonin receptor
Description: Membranes were prepared in the following way; the cells were rinsed with PBS and incubated with Versene for approximately 5 min before harvesting. The cells were flushed with PBS and the cell-suspension was centrifuged for 5 min at 1000 rpm. Cells were homogenized (Ultrathurrax) in a buffer containing 20 mM Na-HEPES and 10 mM EDTA (pH 7.4) and centrifuged at 20.000 rpm for 15 min. The resulting pellet was resuspended, homogenized and centrifuged (20.000 rpm, 15 min) in a buffer containing 20 mM Na-HEPES and 0.1 mM EDTA (pH 7.4, buffer 2). The resulting pellet was resuspended in buffer 2 and protein concentration was measured (BCA protein Assay, Pierce). The homogenate was kept cold during the whole procedure. The membranes were kept at −80° C. until use. Assay was performed in a 384 well Optiplate (PerkinElmer) in a total volume of 40 ul. Membranes were mixed with SPA beads. Final concentration of membranes 35 ng/μL final and Final concentration of SPA beads was 0.05 mg/well. Test-compounds were dissolved in DMSO and further diluted in assay buffer (50 mM Hepes, pH 7.4, 1 mM CaCl2, 5 mM MgCl₂, 0.1% OA and 0.02% Tween20). […] The final mixture was incubated for 120 min with shaking at 400 rpm at 25° C. prior to centrifugation (1500 rpm, 10 min). Samples were analyzed on TopCounter™ (Packard). The […] was calculated using (one site binding competition analysis) GraphPad Prism5 as a measure of receptor affinity.

Row | Ratio hCT/hAmylin binding [1] | IC50 [2] | Binder
1 | 63.4 | 61.3 nM | K([AEEA-AEEA-γGlu-C20 diacid])CNTATCATQRLANFLRHSSPNFGAIPSSTNVGRNTY-NH2 (disulfide 2-7; N-terminus assumed; SMILES CC[C@H](C)[C@H](NC(=O)[C@H](C)NC(=O)CNC(=O)[C@H](Cc1ccccc1)NC(=O)[C@H](CC(N)=O)NC(=O)[C@@H]1CCCN1C(=O)[C@H](CO)NC(=O)[C@H](CO)NC(=O)[C@H](Cc1c[nH]cn1)NC(=O)[C@H](CCCNC(=N)N)NC(=O)[C@H](CC(C)C)NC(=O)[C@H](Cc1ccccc1)NC(=O)[C@H](CC(N)=O)NC(=O)[C@H](C)NC(=O)[C@H](CC(C)C)NC(=O)[C@H](CCCNC(=N)N)NC(=O)[C@H](CCC(N)=O)NC(=O)[C@@H](NC(=O)[C@H](C)NC(=O)[C@@H]1CSSC[C@H](NC(=O)[C@@H](N)CCCCNC(=O)COCCOCCNC(=O)COCCOCCNC(=O)CC[C@H](NC(=O)CCCCCCCCCCCCCCCCCCC(=O)O)C(=O)O)C(=O)N[C@@H](CC(N)=O)C(=O)N[C@@H]([C@@H](C)O)C(=O)N[C@@H](C)C(=O)N[C@@H]([C@@H](C)O)C(=O)N1)[C@@H](C)O)C(=O)N1CCC[C@H]1C(=O)N[C@@H](CO)C(=O)N[C@@H](CO)C(=O)N[C@H](C(=O)N[C@@H](CC(N)=O)C(=O)N[C@H](C(=O)NCC(=O)N[C@@H](CCCNC(=N)N)C(=O)N[C@@H](CC(N)=O)C(=O)N[C@H](C(=O)N[C@@H](Cc1ccc(O)cc1)C(N)=O)[C@@H](C)O)C(C)C)[C@@H](C)O, also called compound 95)
2 | 79.6 | 13.2 nM | K([AEEA-AEEA-γGlu-C20 diacid])CNTATCATQRLANFLRHSSPNFGAIPSSTPVGSNTY-NH2 (disulfide 2-7; N-terminus assumed; SMILES CC[C@H](C)[C@H](NC(=O)[C@H](C)NC(=O)CNC(=O)[C@H](Cc1ccccc1)NC(=O)[C@H](CC(N)=O)NC(=O)[C@@H]1CCCN1C(=O)[C@H](CO)NC(=O)[C@H](CO)NC(=O)[C@H](Cc1c[nH]cn1)NC(=O)[C@H](CCCNC(=N)N)NC(=O)[C@H](CC(C)C)NC(=O)[C@H](Cc1ccccc1)NC(=O)[C@H](CC(N)=O)NC(=O)[C@H](C)NC(=O)[C@H](CC(C)C)NC(=O)[C@H](CCCNC(=N)N)NC(=O)[C@H](CCC(N)=O)NC(=O)[C@@H](NC(=O)[C@H](C)NC(=O)[C@@H]1CSSC[C@H](NC(=O)[C@@H](N)CCCCNC(=O)COCCOCCNC(=O)COCCOCCNC(=O)CC[C@H](NC(=O)CCCCCCCCCCCCCCCCCCC(=O)O)C(=O)O)C(=O)N[C@@H](CC(N)=O)C(=O)N[C@@H]([C@@H](C)O)C(=O)N[C@@H](C)C(=O)N[C@@H]([C@@H](C)O)C(=O)N1)[C@@H](C)O)C(=O)N1CCC[C@H]1C(=O)N[C@@H](CO)C(=O)N[C@@H](CO)C(=O)N[C@H](C(=O)N1CCC[C@H]1C(=O)N[C@H](C(=O)NCC(=O)N[C@@H](CO)C(=O)N[C@@H](CC(N)=O)C(=O)N[C@H](C(=O)N[C@@H](Cc1ccc(O)cc1)C(N)=O)[C@@H](C)O)C(C)C)[C@@H](C)O, also called compound 96)
3 | 74.1 | 6.74 nM | K([AEEA-AEEA-γGlu-C20 diacid])CNTATCATQRLANFLRHSSPNFGAIPSSTNVGPNTY-NH2 (disulfide 2-7; N-terminus assumed; SMILES CC[C@H](C)[C@H](NC(=O)[C@H](C)NC(=O)CNC(=O)[C@H](Cc1ccccc1)NC(=O)[C@H](CC(N)=O)NC(=O)[C@@H]1CCCN1C(=O)[C@H](CO)NC(=O)[C@H](CO)NC(=O)[C@H](Cc1c[nH]cn1)NC(=O)[C@H](CCCNC(=N)N)NC(=O)[C@H](CC(C)C)NC(=O)[C@H](Cc1ccccc1)NC(=O)[C@H](CC(N)=O)NC(=O)[C@H](C)NC(=O)[C@H](CC(C)C)NC(=O)[C@H](CCCNC(=N)N)NC(=O)[C@H](CCC(N)=O)NC(=O)[C@@H](NC(=O)[C@H](C)NC(=O)[C@@H]1CSSC[C@H](NC(=O)[C@@H](N)CCCCNC(=O)COCCOCCNC(=O)COCCOCCNC(=O)CC[C@H](NC(=O)CCCCCCCCCCCCCCCCCCC(=O)O)C(=O)O)C(=O)N[C@@H](CC(N)=O)C(=O)N[C@@H]([C@@H](C)O)C(=O)N[C@@H](C)C(=O)N[C@@H]([C@@H](C)O)C(=O)N1)[C@@H](C)O)C(=O)N1CCC[C@H]1C(=O)N[C@@H](CO)C(=O)N[C@@H](CO)C(=O)N[C@H](C(=O)N[C@@H](CC(N)=O)C(=O)N[C@H](C(=O)NCC(=O)N1CCC[C@H]1C(=O)N[C@@H](CC(N)=O)C(=O)N[C@H](C(=O)N[C@@H](Cc1ccc(O)cc1)C(N)=O)[C@@H](C)O)C(C)C)[C@@H](C)O, also called compound 98)
4 | 247 | 42.4 nM | K([AEEA-γGlu-C20 diacid])CNTATCATQRLAAFLRHSSPNFGAIPSSTPVGSNTY-NH2 (disulfide 2-7; N-terminus assumed; SMILES CC[C@H](C)[C@H](NC(=O)[C@H](C)NC(=O)CNC(=O)[C@H](Cc1ccccc1)NC(=O)[C@H](CC(N)=O)NC(=O)[C@@H]1CCCN1C(=O)[C@H](CO)NC(=O)[C@H](CO)NC(=O)[C@H](Cc1c[nH]cn1)NC(=O)[C@H](CCCNC(=N)N)NC(=O)[C@H](CC(C)C)NC(=O)[C@H](Cc1ccccc1)NC(=O)[C@H](C)NC(=O)[C@H](C)NC(=O)[C@H](CC(C)C)NC(=O)[C@H](CCCNC(=N)N)NC(=O)[C@H](CCC(N)=O)NC(=O)[C@@H](NC(=O)[C@H](C)NC(=O)[C@@H]1CSSC[C@H](NC(=O)[C@@H](N)CCCCNC(=O)COCCOCCNC(=O)CC[C@H](NC(=O)CCCCCCCCCCCCCCCCCCC(=O)O)C(=O)O)C(=O)N[C@@H](CC(N)=O)C(=O)N[C@@H]([C@@H](C)O)C(=O)N[C@@H](C)C(=O)N[C@@H]([C@@H](C)O)C(=O)N1)[C@@H](C)O)C(=O)N1CCC[C@H]1C(=O)N[C@@H](CO)C(=O)N[C@@H](CO)C(=O)N[C@H](C(=O)N1CCC[C@H]1C(=O)N[C@H](C(=O)NCC(=O)N[C@@H](CO)C(=O)N[C@@H](CC(N)=O)C(=O)N[C@H](C(=O)N[C@@H](Cc1ccc(O)cc1)C(N)=O)[C@@H](C)O)C(C)C)[C@@H](C)O, also called compound 72)
